The target in experiment [1] is T1, MERS-CoV nucleocapsid protein (Sino Biological Cat. No. 40068V08B) (MERS-CoV, UniProt K9N4V7 1-411).
T1 construct: also called MERS-CoV NP; MERS NP
Description: indirect LFIA, NP fixed on nitrocellulose, hybridoma culture medium.

In experiment [2] the target is T2, SARS-CoV nucleocapsid protein (Sino Biological Cat. No. 40143-V08B) (SARS-CoV, UniProt P59595 1-422).
T2 construct: also called SARS-CoV NP
Described as above.

Where a chain is given by its changes, count along the chain named.

B1: 54G10 (antibody, V domains shown)
VH: EVTLKVCGPGILQPSQTLSLTCSFSGFSLSTSGMGVGWIRQPSGKGLEWLAHIWWDDVKRYNPALKSRLTISKDTSSSQVFLKIASVDTADTATYYCARYYRYDVRWGQGTLVTVSA
VL: DIVMTQTPKFLLVSAGDRVTITCKASQSVSNDVAWYQQKPGQSPTLLIYSASNRYTGVPDRFTGSGYGTDFTFTISTVQAEDLAVYFCQQDYSSPLTFGAGTKLELK
notes: also called monoclonal antibody 54G10
Consider B1, for which the binding result in experiment [1] and in experiment [2] was “no binding” each time.

B2: 79C12 (antibody, V domains shown)
VH: EVKLEESGGGLVQPGGSMKLSCVASGFTFSDYWMNWVRQSPEKGLEWVAEIRLKSNNYATHYAESVKGRFTISRDDSKSSVYLQMNNLRAEDTGIYYCTRAAMDYWGQGTSVTVSS
VL: not shown
notes: also called monoclonal antibody 79C12
As for B2, the binding result in experiment [1] and in experiment [2] was “no binding” each time.

B3: 54G6 (antibody, V domains shown)
VH: B2 VH with K3Q, L4G, E5V, V23A, A49G, V81I, Y82H, A101Y, S111T
VL: GIVMTQSPSSLAVSPGEKVTMSCKSSQSLLNSRTRKNHLAWYQQKPGQSPKLLIYWASTKDSGVPDRFTGSGSGTDFTLTISSVQAEDLAVYYCKQSYNLFTFGSGTKLEIK
notes: also called monoclonal antibody 54G6
As for B3, the binding result in experiment [1] and in experiment [2] was “no binding” throughout.
